Results on 2 molecules are retold here after US20060275211A1 (AGENSYS, published 2006).

Assay [1] deals with T1, Tag5-161P2F10B, purified recombinant extracellular domain (ECD) of 161P2F10B (amino acids 46-875) (human, UniProt O14638 46-875).
T1 construct: also called recombinant 161P2F10B; Tag5-161P2F10B-ECD
Put plainly: SPR, MAb captured on CM5 chip, recombinant 161P2F10B 1-100 nM injected. A general note: SPR reads the build-up and loss of mass on a sensor chip optically.
Excerpt: Briefly, each purified human MAb is captured onto a CM5 sensor chip surface. On average approximately 150 RUs of each MAb is captured in every cycle.

In assay [2] the target is T2, mouse 161P2F10B expressed on 293T cells (mouse, UniProt Q6DYE8 1-874).
T2 construct: whole, on cells; also called murine 161P2F10B; mouse 161P2F10B ortholog
T2 sequence (Q6DYE8 whole entry): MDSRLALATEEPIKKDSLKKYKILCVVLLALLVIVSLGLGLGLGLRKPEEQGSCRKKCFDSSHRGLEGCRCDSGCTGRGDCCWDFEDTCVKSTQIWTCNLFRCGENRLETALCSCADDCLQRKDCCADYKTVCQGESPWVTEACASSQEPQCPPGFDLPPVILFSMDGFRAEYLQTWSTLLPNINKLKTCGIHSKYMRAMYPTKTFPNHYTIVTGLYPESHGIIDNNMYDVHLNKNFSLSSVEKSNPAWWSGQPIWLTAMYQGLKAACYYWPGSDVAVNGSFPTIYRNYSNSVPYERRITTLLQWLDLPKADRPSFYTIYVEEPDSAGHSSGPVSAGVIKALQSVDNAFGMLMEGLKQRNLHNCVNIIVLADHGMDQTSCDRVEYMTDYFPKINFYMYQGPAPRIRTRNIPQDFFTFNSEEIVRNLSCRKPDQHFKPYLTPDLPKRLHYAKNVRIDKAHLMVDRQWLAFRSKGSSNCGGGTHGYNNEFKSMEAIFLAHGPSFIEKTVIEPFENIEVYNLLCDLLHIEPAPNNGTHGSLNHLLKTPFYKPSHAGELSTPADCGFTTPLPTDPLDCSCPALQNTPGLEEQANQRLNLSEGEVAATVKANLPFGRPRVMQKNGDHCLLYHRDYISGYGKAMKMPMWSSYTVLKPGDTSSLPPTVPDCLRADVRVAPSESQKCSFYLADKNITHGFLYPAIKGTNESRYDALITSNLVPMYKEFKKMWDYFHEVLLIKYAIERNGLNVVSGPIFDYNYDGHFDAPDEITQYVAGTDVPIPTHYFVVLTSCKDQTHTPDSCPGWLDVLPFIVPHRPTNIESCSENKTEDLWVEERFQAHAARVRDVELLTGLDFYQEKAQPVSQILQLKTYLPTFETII
Nature of the assay: FACS: 293T-mouse 161P2F10B cells (open line) vs 293T-neo cells (filled), MAb 2 µg/mL, anti-hIgG-PE. For orientation: Flow cytometry measures light scatter and fluorescence of single cells or particles in a stream.
Description: Cross reactivity of human MAbs on mouse 161P2F10B. […] Antibodies bound on the cells were detected using anti-hIgG-PE and analyzed on FACS. Data were analyzed using CellQuest Pro software. The solid purple line is data from negative control cells. The green line is from 161P2F10B-positive cells.

B1: H16-7.200 (antibody, V domains shown)
VH: QVQLQESGPGLVKPSQTLSLTCTVSGGSITSGDYYWSWIRQHPGKGLEWFGFIYYSGSAYYNPSLKSRITISVDTSKNQFSLKLSSVTAADTAVYYCARERNYGGNSFDYWGQGTLVTVSS
VL: not shown
notes: Entries include the leader (VL: part of it) and a portion of the constant region; also called HA16-7.200
As for B1, the equilibrium dissociation constant (Kd) in assay [1] was found to be 9 nM.

B2: H16-7.8 (antibody, V domains shown)
VH: QVQLQESGPGLVKPSQTLSLTCTVSGGSISSGGYYWSWIRQHPGKGLEWIGIIYYSGSTYYNPSLKSRVTISVDTSKNQFSLKLNSVTAADTAVFYCARVAIVTTIPGGMDVWGQGTTVTVSS
VL: EIVLTQSPDFQSVTPKEKVTITCRASQSIGISLHWYQQKPDQSPKLLIKYASQSFSGVPSRFSGSGSGTDFTLTINSLEAEDAATYYCHQSRSFPWTFGQGTKVEIKR
notes: Entries include the leader and a portion of the constant region
B2: the binding result in assay [2] was “binds”.

A word on the Kd: it is the constant that tells how readily two partners part at equilibrium.
